# According to US10434147B2, “Treatment type 2 diabetes mellitus patients” (Sanofi-Aventis Deutschland GmbH, priority 2015, dated 2019):
# Marks after values point to notes of the source that are not given here.
# Legend:
# Assay type in all cases: in vivo, human
# [1] = system: Patients with Type 2 Diabetes Insufficiently Controlled with Insulin Glargine with or without Metformin; assay: Treatment-emergent adverse events, 26-week study; details: in vivo
# From the text: (§1) FIG. 6—Graphical study design. ^1 Insulin glargine should be injected subcutaneously once daily at dinner or breakfast time (according to patient's/investigators' preference). […] Meal used for insulin glulisine dosing should remain the same throughout the 26-week treatment period. ^4 Injection of insulin glulisine prior to breakfast, lunch and dinner.
# (§2) Co-primary endpoints at 26 weeks were (1) non-inferiority (95% CI upper bound <0.4%) in HbA1c reduction with LIXI vs GLU-1 and (2) for LIXI vs GLU-3, either non-inferiority in HbA1c reduction (2a) OR superiority (one-sided α≤0.025) in body weight change (2b). FPG, PPG, IG dose, composite outcomes, AEs, and hypoglycemia were assessed.
# [2] = system: Patients with Type 2 Diabetes Insufficiently Controlled with Insulin Glargine with or without Metformin; assay: Fasting plasma glucose, 26-week study
# From the text: as §1, §2
# [3] = system: Patients with Type 2 Diabetes Insufficiently Controlled with Insulin Glargine with or without Metformin
# [4] = system: Patients with Type 2 Diabetes Insufficiently Controlled with Insulin Glargine with or without Metformin; assay: HbA1c, randomized open-label active-controlled 3-arm 26-week study (GetGoal-Duo2)
# From the text: as §1, §2
# [5] = Baseline (before IMP), mITT population
# [6] = Week 26 (LOCF), mITT population
substance,measurement,setting,value
"Insulin Glulisine TID: insulin glulisine three times daily, added to insulin glargine ± metformin (comparator arm)",Patients with treatment emergent SAE: Septic arthritis staphylococcal,[1],0 n (%)
same,Patients with treatment emergent SAE: Skin and subcutaneous tissue disorders (SOC),[1],1 (0.3%) n (%)
same,Patients with treatment emergent SAE: Skin ulcer haemorrhage,[1],1 (0.3%) n (%)
same,Patients with treatment emergent SAE: Uterine cancer,[1],0 n (%)
same,Patients with treatment emergent SAE: Vascular disorders (SOC),[1],1 (0.3%) n (%)
same,TEAE leading to permanent treatment discontinuation: Abdominal pain,[1],0 n (%)
same,TEAE leading to permanent treatment discontinuation: Any class,[1],3 (1.0%) n (%)
same,TEAE leading to permanent treatment discontinuation: Ascites,[1],0 n (%)
same,TEAE leading to permanent treatment discontinuation: Blood and lymphatic system disorders (SOC),[1],0 n (%)
same,TEAE leading to permanent treatment discontinuation: Blood glucose decreased,[1],0 n (%)
same,TEAE leading to permanent treatment discontinuation: Cardiac disorders (SOC),[1],1 (0.3%) n (%)
same,TEAE leading to permanent treatment discontinuation: Cardiac failure chronic,[1],1 (0.3%) n (%)
same,TEAE leading to permanent treatment discontinuation: Cough,[1],0 n (%)
same,TEAE leading to permanent treatment discontinuation: Decreased appetite,[1],0 n (%)
same,TEAE leading to permanent treatment discontinuation: Dehydration,[1],0 n (%)
same,TEAE leading to permanent treatment discontinuation: Diabetic bullosis,[1],0 n (%)
same,TEAE leading to permanent treatment discontinuation: Diarrhoea,[1],0 n (%)
same,TEAE leading to permanent treatment discontinuation: Dyspepsia,[1],0 n (%)
same,TEAE leading to permanent treatment discontinuation: Epigastric discomfort,[1],0 n (%)
same,TEAE leading to permanent treatment discontinuation: Gastric ulcer haemorrhage,[1],0 n (%)
same,TEAE leading to permanent treatment discontinuation: Gastrointestinal disorders (SOC),[1],0 n (%)
same,TEAE leading to permanent treatment discontinuation: Headache,[1],0 n (%)
same,TEAE leading to permanent treatment discontinuation: Hepatic mass,[1],0 n (%)
same,TEAE leading to permanent treatment discontinuation: Hepatobiliary disorders (SOC),[1],0 n (%)
same,TEAE leading to permanent treatment discontinuation: Hot flush,[1],0 n (%)
same,TEAE leading to permanent treatment discontinuation: Hypoglycaemia,[1],0 n (%)
same,TEAE leading to permanent treatment discontinuation: Immune system disorders (SOC),[1],1 (0.3%) n (%)
same,TEAE leading to permanent treatment discontinuation: Invasive ductal breast carcinoma,[1],0 n (%)
same,TEAE leading to permanent treatment discontinuation: Investigations (SOC),[1],0 n (%)
same,TEAE leading to permanent treatment discontinuation: Lymphadenopathy,[1],0 n (%)
same,TEAE leading to permanent treatment discontinuation: Metabolism and nutrition disorders (SOC),[1],0 n (%)
same,TEAE leading to permanent treatment discontinuation: Metastases to liver,[1],0 n (%)
same,TEAE leading to permanent treatment discontinuation: Metastases to peritoneum,[1],0 n (%)
same,TEAE leading to permanent treatment discontinuation: Nasal congestion,[1],0 n (%)
same,TEAE leading to permanent treatment discontinuation: Nausea,[1],0 n (%)
same,"TEAE leading to permanent treatment discontinuation: Neoplasms benign, malignant and unspecified (incl cysts and polyps) (SOC)",[1],0 n (%)
same,TEAE leading to permanent treatment discontinuation: Nervous system disorders (SOC),[1],0 n (%)
same,TEAE leading to permanent treatment discontinuation: Pancreatic carcinoma metastatic,[1],0 n (%)
same,TEAE leading to permanent treatment discontinuation: Renal and urinary disorders (SOC),[1],0 n (%)
same,TEAE leading to permanent treatment discontinuation: Renal failure,[1],0 n (%)
same,"TEAE leading to permanent treatment discontinuation: Respiratory, thoracic and mediastinal disorders (SOC)",[1],0 n (%)
same,TEAE leading to permanent treatment discontinuation: Seasonal allergy,[1],1 (0.3%) n (%)
same,TEAE leading to permanent treatment discontinuation: Skin and subcutaneous tissue disorders (SOC),[1],1 (0.3%) n (%)
same,TEAE leading to permanent treatment discontinuation: Skin ulcer haemorrhage,[1],1 (0.3%) n (%)
same,TEAE leading to permanent treatment discontinuation: Thrombosis,[1],0 n (%)
same,TEAE leading to permanent treatment discontinuation: Tremor,[1],0 n (%)
same,TEAE leading to permanent treatment discontinuation: Vascular disorders (SOC),[1],0 n (%)
same,TEAE leading to permanent treatment discontinuation: Vomiting,[1],0 n (%)
same,Total number of patients with any event adjudicated as pancreatitis by PSAC,[1],0 n (%)
same,"Fasting plasma glucose change to Week 26, LS Mean difference (SE) of Lixisenatide vs. the labelled insulin glulisine arm","[2]; ANCOVA, mITT population",−0.17 (0.158) mmol/L
same,"Fasting plasma glucose, Change from baseline to Week 26 (LOCF), LS Mean (SE)","[2]; ANCOVA, mITT population",−0.06 (0.140) mmol/L
same,"FPG, BL (end run-in) mean ± SD","[2]; BL (end run-in), mITT",120 ± 34 mg/dL
same,"Fasting plasma glucose, Baseline, Mean (SD)",[2]; [5],6.65 (1.89) mmol/L
same,"Fasting plasma glucose, Baseline, Median",[2]; [5],6.40 mmol/L
same,"FPG, Screening (start run-in) mean ± SD","[2]; Screening (start run-in), mITT",171 ± 53 mg/dL
same,"FPG, Week 26 (LOCF) mean ± SD","[2]; Week 26 (LOCF), mITT",121 ± 36 mg/dL
same,"Fasting plasma glucose, Week 26 (LOCF), Mean (SD)",[2]; [6],6.71 (2.02) mmol/L
same,"Fasting plasma glucose, Week 26 (LOCF), Median",[2]; [6],6.50 mmol/L
same,"FPG, LS mean treatment difference (lixisenatide vs the labelled arm)","[2]; Week 26, mITT",-3 mg/dL
same,"FPG, LS mean ± SE change from BL","[2]; Week 26, mITT",-1 ± 3 mg/dL
same,"Fasting plasma glucose, Change from baseline to Week 26 (LOCF), Mean (SD)",[2]; mITT population,0.05 (2.47) mmol/L
same,"Fasting plasma glucose, Change from baseline to Week 26 (LOCF), Median",[2]; mITT population,-0.20 mmol/L
same,Reason for treatment discontinuation: Lack of efficacy,"[3]; Randomized population, HbA1c above […] at Week 12 or later",0 n (%)
same,Reason for treatment discontinuation: Adverse event,"[3]; human, in vivo",5 (1.7%) n (%)
same,"HbA1c change to Week 26, LS Mean difference (SE) of Lixisenatide vs. the labelled insulin glulisine arm","[4]; ANCOVA, mITT population",0.21 (0.059) %
same,"HbA1c, Change from baseline to Week 26 (LOCF), LS Mean (SE)","[4]; ANCOVA, mITT population",−0.84 (0.053) %
same,"HbA1c, BL (end run-in) mean ± SD","[4]; BL (end run-in), mITT",7.8 ± 0.6%
same,"HbA1c, Baseline, Mean (SD)",[4]; [5],7.79 (0.60) %
same,"HbA1c, Baseline, Median",[4]; [5],7.70%
same,"HbA1c, Screening (start run-in) mean ± SD","[4]; Screening (start run-in), mITT",8.5 ± 0.8%
same,"HbA1c, Week 26 (LOCF), Mean (SD)",[4]; [6],6.96 (0.73) %
same,"HbA1c, Week 26 (LOCF), Median",[4]; [6],7.00%
same,"HbA1c, Week 26 (LOCF) mean ± SD","[4]; Week 26 (LOCF), mITT, Example 2 table",7.0 ± 0.7%
same,"HbA1c, LS mean treatment difference (lixisenatide vs the labelled arm), co-primary endpoint","[4]; Week 26, mITT, Example 2 table",0.2^† %
same,"HbA1c, LS mean ± SE change from BL","[4]; Week 26, mITT, Example 2 table",−0.8 ± 0.1%
same,"HbA1c, Change from baseline to Week 26 (LOCF), Mean (SD)",[4]; mITT population,−0.82 (0.78) %
same,"HbA1c, Change from baseline to Week 26 (LOCF), Median",[4]; mITT population,−0.90%
